The test system of data set [1] is HeLa Kyoto. Nature of the data set: thermal stability score vs G1/S (z-score of summed log2 fold changes over temperatures); higher = more thermally stable than in G1/S.
In data set [2] the test system is HeLa Kyoto. Nature of the data set: solubility change mitosis vs G1/S (difference of NP-40 vs SDS log2 ratios) (log2 ratio difference); higher = more soluble in mitosis.
Data set [3] has as its system HeLa Kyoto. Nature of the data set: solubility in G1/S (NP-40 vs SDS abundance) (log2 ratio); higher = more soluble. To be noted: cell cycle stage: G1/S.
In data set [4] the test system is HeLa Kyoto. Nature of the data set: melting temperature (median over replicates), in situ; higher = more thermally stable.
The mark [5] stands for this setting: cell cycle stage: early G1 (4.5 h after nocodazole release).
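Wherever melting temperature (median over replicates), in situ is given: HeLa Kyoto cells synchronized by double thymidine or nocodazole block, proteins quantified by TMT10plex mass spectrometry, three independent biological replicates.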
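Wherever solubility change mitosis vs G1/S (difference of NP-40 vs SDS log2 ratios) is given: synchronized HeLa Kyoto cells (double thymidine block for G1/S, nocodazole release for mitosis), protein amounts in NP-40 versus SDS lysates quantified by mass spectrometry, three biological replicates.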
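Wherever solubility in G1/S (NP-40 vs SDS abundance) is given: HeLa Kyoto cells arrested at G1/S by double thymidine block, proteins quantified by TMT10plex mass spectrometry in mild NP-40 versus SDS extracts, three biological replicates.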
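Wherever thermal stability score vs G1/S (z-score of summed log2 fold changes over temperatures) is given: synchronized HeLa Kyoto cells, proteins quantified by TMT10plex mass spectrometry, three biological replicates, mitosis taken 0.5 h after nocodazole release, G1/S directly after double thymidine block.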

Turning to “MSSKKNRKRLNQSAENGSSLPSAASSCAEARAPSAGSDFAATSGTLTVTNLLEKVDDKIPKTFQNSLIHLGLNTMKSANICIGRPVLLTSLNGKQEVYTAWPMAGFPGGKVGLSEMAQKNVGVRPGDAIQVQPLVGAVLQAEEMDVALSDKDMEINEEELTGCILRKLDGKIVLPGNFLYCTFYGRPYKLQVLRVKGADGMILGGPQSDSDTDAQRMAFEQSSMETSSLELSLQLSQLDLEDTQIPTSRSTPYKPIDDRITNKASDVLLDVTQSPGDGSGLMLEEVTGLKCNFESAREGNEQLTEEERLLKFSIGAKCNTDTFYFISSTTRVNFTEIDKNSKEQDNQFKVTYDMIGGLSSQLKAIREIIELPLKQPELFKSYGIPAPRGVLLYGPPGTGKTMIARAVANEVGAYVSVINGPEIISKFYGETEAKLRQIFAEATLRHPSIIFIDELDALCPKREGAQNEVEKRVVASLLTLMDGIGSEVSEGQVLVLGATNRPHALDAALRRPGRFDKEIEIGVPNAQDRLDILQKLLRRVPHLLTEAELLQLANSAHGYVGADLKVLCNEAGLCALRRILKKQPNLPDVKVAGLVKITLKDFLQAMNDIRPSAMREIAIDVPNVSWSDIGGLESIKLKLEQAVEWPLKHPESFIRMGIQPPKGVLLYGPPGCSKTMIAKALANESGLNFLAIKGPELMNKYVGESERAVRETFRKARAVAPSIIFFDELDALAVERGSSLGAGNVADRVLAQLLTEMDGIEQLKDVTILAATNRPDRIDKALMRPGRIDRIIYVPLPDAATRREIFKLQFHSMPVSNEVDLDELILQTDAYSGAEIVAVCREAALLALEEDIQANLIMKRHFTQALSTVTPRIPESLRRFYEDYQEKSGLHTL [SPATA5]”, the thermal stability score in the data set with HeLa Kyoto [1] (setting [5]) is 1.78; in the data set with HeLa Kyoto [1] (cell cycle stage: mitosis), -0.413. The “solubility change mitosis (log2)” value in the data set on HeLa Kyoto [2] was 0.184. The “solubility in G1/S (log2)” value in the data set with HeLa Kyoto [3] was -0.296. Also, the melting temperature came to 53 °C in the data set with HeLa Kyoto [4] (cell cycle stage: G1/S) and 51.7 °C in the data set with HeLa Kyoto [4] (cell cycle stage: mitosis).
As for “MSSNECFKCGRSGHWARECPTGGGRGRGMRSRGRGGFTSDRGFQFVSSSLPDICYRCGESGHLAKDCDLQEDACYNCGRGGHIAKDCKEPKREREQCCYNCGKPGHLARDCDHADEQKCYSCGEFGHIQKDCTKVKCYRCGETGHVAINCSKTSEVNCYRCGESGHLARECTIEATA [CNBP]”, the thermal stability score in the data set with HeLa Kyoto [1] (setting [5]) is -1.16; in the data set with HeLa Kyoto [1] (cell cycle stage: mitosis), -2.48. Besides, the “solubility change mitosis (log2)” value in the data set on HeLa Kyoto [2] is -0.0883. Further, in the data set with HeLa Kyoto [3], the “solubility in G1/S (log2)” value was -0.223. Also, the melting temperature with HeLa Kyoto [4] (cell cycle stage: G1/S) was determined as 57.6 °C; with HeLa Kyoto [4] (cell cycle stage: mitosis) it was 58.8 °C.
Take “MSSNSFPYNEQSGGGEATELGQEATSTISPSGAFGLFSSDLKKNEDLKQMLESNKDSAKLDAMKRIVGMIAKGKNASELFPAVVKNVASKNIEIKKLVYVYLVRYAEEQQDLALLSISTFQRALKDPNQLIRASALRVLSSIRVPIIVPIMMLAIKEASADLSPYVRKNAAHAIQKLYSLDPEQKEMLIEVIEKLLKDKSTLVAGSVVMAFEEVCPDRIDLIHKNYRKLCNLLVDVEEWGQVVIIHMLTRYARTQFVSPWKEGDELEDNGKNFYESDDDQKEKTDKKKKPYTMDPDHRLLIRNTKPLLQSRNAAVVMAVAQLYWHISPKSEAGIISKSLVRLLRSNREVQYIVLQNIATMSIQRKGMFEPYLKSFYVRSTDPTMIKTLKLEILTNLANEANISTLLREFQTYVKSQDKQFAAATIQTIGRCATNILEVTDTCLNGLVCLLSNRDEIVVAESVVVIKKLLQMQPAQHGEIIKHMAKLLDSITVPVARASILWLIGENCERVPKIAPDVLRKMAKSFTSEDDLVKLQILNLGAKLYLTNSKQTKLLTQYILNLGKYDQNYDIRDRTRFIRQLIVPNVKSGALSKYAKKIFLAQKPAPLLESPFKDRDHFQLGTLSHTLNIKATGYLELSNWPEVAPDPSVRNVEVIELAKEWTPAGKAKQENSAKKFYSESEEEEDSSDSSSDSESESGSESGEQGESGEEGDSNEDSSEDSSSEQDSESGRESGLENKRTAKRNSKAKGKSDSEDGEKENEKSKTSDSSNDESSSIEDSSSDSESESEPESESESRRVTKEKEKKTKQDRTPLTKDVSLLDLDDFNPVSTPVALPTPALSPSLMADLEGLHLSTSSSVISVSTPAFVPTKTHVLLHRMSGKGLAAHYFFPRQPCIFGDKMVSIQITLNNTTDRKIENIHIGEKKLPIGMKMHVFNPIDSLEPEGSITVSMGIDFCDSTQTASFQLCTKDDCFNVNIQPPVGELLLPVAMSEKDFKKEQGVLTGMNETSAVIIAAPQNFTPSVIFQKVVNVANVGAVPSGQDNIHRFAAKTVHSGSLMLVTVELKEGSTAQLIINTEKTVIGSVLLRELKPVLSQG [AP3B1]”: the thermal stability score in the data set with HeLa Kyoto [1] (setting [5]) is -0.704; with HeLa Kyoto [1] (cell cycle stage: mitosis) it was -0.939. In the data set on HeLa Kyoto [2], the “solubility change mitosis (log2)” value was -0.0973. Moreover, the “solubility in G1/S (log2)” value in the data set with HeLa Kyoto [3] is -0.0793. Further, the melting temperature in the data set on HeLa Kyoto [4] (cell cycle stage: G1/S) was determined as 50.6 °C; in the data set on HeLa Kyoto [4] (cell cycle stage: mitosis) it was 50 °C.
Consider “MSSRKLSGPKGRRLSIHVVTWNVASAAPPLDLSDLLQLNNRNLNLDIYVIGLQELNSGIISLLSDAAFNDSWSSFLMDVLSPLSFIKVSHVRMQGILLLVFAKYQHLPYIQILSTKSTPTGLFGYWGNKGGVNICLKLYGYYVSIINCHLPPHISNNYQRLEHFDRILEMQNCEGRDIPNILDHDLIIWFGDMNFRIEDFGLHFVRESIKNRCYGGLWEKDQLSIAKKHDPLLREFQEGRLLFPPTYKFDRNSNDYDTSEKKRKPAWTDRILWRLKRQPCAGPDTPIPPASHFSLSLRGYSSHMTYGISDHKPVSGTFDLELKPLVSAPLIVLMPEDLWTVENDMMVSYSSTSDFPSSPWDWIGLYKVGLRDVNDYVSYAWVGDSKVSCSDNLNQVYIDISNIPTTEDEFLLCYYSNSLRSVVGISRPFQIPPGSLREDPLGEAQPQI [INPP5K]”, for which the thermal stability score was -0.0552 in the data set with HeLa Kyoto [1] (setting [5]) and 0.149 with HeLa Kyoto [1] (cell cycle stage: mitosis). Also, the “solubility change mitosis (log2)” value in the data set with HeLa Kyoto [2] was -0.0846. In addition, the “solubility in G1/S (log2)” value in the data set on HeLa Kyoto [3] was -0.384. The melting temperature with HeLa Kyoto [4] (cell cycle stage: mitosis) was found to be 51.8 °C.
Take “MSSRKSKSNSLIHTECLSQVQRILRERFCRQSPHSNLFGVQVQYKHLSELLKRTALHGESNSVLIIGPRGSGKTMLINHALKELMEIEEVSENVLQVHLNGLLQINDKIALKEITRQLNLENVVGDKVFGSFAENLSFLLEALKKGDRTSSCPVIFILDEFDLFAHHKNQTLLYNLFDISQSAQTPIAVIGLTCRLDILELLEKRVKSRFSHRQIHLMNSFGFPQYVKIFKEQLSLPAEFPDKVFAEKWNENVQYLSEDRSVQEVLQKHFNISKNLRSLHMLLMLALNRVTASHPFMTAVDLMEASQLCSMDSKANIVHGLSVLEICLIIAMKHLNDIYEEEPFNFQMVYNEFQKFVQRKAHSVYNFEKPVVMKAFEHLQQLELIKPMERTSGNSQREYQLMKLLLDNTQIMNALQKYPNCPTDVRQWATSSLSWL [ORC4]”: the thermal stability score in the data set on HeLa Kyoto [1] (setting [5]) was determined as 1.97; with HeLa Kyoto [1] (cell cycle stage: mitosis), 2.38. The “solubility change mitosis (log2)” value in the data set on HeLa Kyoto [2] is -0.248. Moreover, in the data set on HeLa Kyoto [3], the “solubility in G1/S (log2)” value was found to be 0.194. For the same sequence, the figures for the melting temperature in the data set on HeLa Kyoto [4] (cell cycle stage: G1/S) and with HeLa Kyoto [4] (cell cycle stage: mitosis) were 48.8 °C and 49.6 °C, respectively.
On to “MSSSHFASRHRKDISTEMIRTKIAHRKSLSQKENRHKEYERNRHFGLKDVNIPTLEGRILVELDETSQGLVPEKTNVKPRAMKTILGDQRKQMLQKYKEEKQLQKLKEQREKAKRGIFKVGRYRPDMPCFLLSNQNAVKAEPKKAIPSSVRITRSKAKDQMEQTKIDNESDVRAIRPGPRQTSEKKVSDKEKKVVQPVMPTSLRMTRSATQAAKQVPRTVSSTTARKPVTRAANENEPEGKVPSKGRPAKNVETKPDKGISCKVDSEENTLNSQTNATSGMNPDGVLSKMENLPEINTAKIKGKNSFAPKDFMFQPLDGLKTYQVTPMTPRSANAFLTPSYTWTPLKTEVDESQATKEILAQKCKTYSTKTIQQDSNKLPCPLGPLTVWHEEHVLNKNEATTKNLNGLPIKEVPSLERNEGRIAQPHHGVPYFRNILQSETEKLTSHCFEWDRKLELDIPDDAKDLIRTAVGQTRLLMKERFKQFEGLVDDCEYKRGIKETTCTDLDGFWDMVSFQIEDVIHKFNNLIKLEESGWQVNNNMNHNMNKNVFRKKVVSGIASKPKQDDAGRIAARNRLAAIKNAMRERIRQEECAETAVSVIPKEVDKIVFDAGFFRVESPVKLFSGLSVSSEGPSQRLGTPKSVNKAVSQSRNEMGIPQQTTSPENAGPQNTKSEHVKKTLFLSIPESRSSIEDAQCPGLPDLIEENHVVNKTDLKVDCLSSERMSLPLLAGGVADDINTNKKEGISDVVEGMELNSSITSQDVLMSSPEKNTASQNSILEEGETKISQSELFDNKSLTTECHLLDSPGLNCSNPFTQLERRHQEHARHISFGGNLITFSPLQPGEF [DLGAP5]”, for which the thermal stability score stood at 0.319 in the data set on HeLa Kyoto [1] (setting [5]) and 1.63 in the data set with HeLa Kyoto [1] (cell cycle stage: mitosis). Besides, in the data set with HeLa Kyoto [2], the “solubility change mitosis (log2)” value is -0.122. Further, the “solubility in G1/S (log2)” value in the data set on HeLa Kyoto [3] stood at 0.097. For the same sequence, the melting temperature was found to be 49.6 °C in the data set with HeLa Kyoto [4] (cell cycle stage: G1/S) and 49.5 °C with HeLa Kyoto [4] (cell cycle stage: mitosis).
In the case of “MSSSPWEPATLRRVFVVGVGMTKFVKPGAENSRDYPDLAEEAGKKALADAQIPYSAVDQACVGYVFGDSTCGQRAIYHSLGMTGIPIINVNNNCATGSTALFMARQLIQGGVAECVLALGFEKMSKGSLGIKFSDRTIPTDKHVDLLINKYGLSAHPVAPQMFGYAGKEHMEKYGTKIEHFAKIGWKNHKHSVNNPYSQFQDEYSLDEVMASKEVFDFLTILQCCPTSDGAAAAILASEAFVQKYGLQSKAVEILAQEMMTDLPSSFEEKSIIKMVGFDMSKEAARKCYEKSGLTPNDIDVIELHDCFSTNELLTYEALGLCPEGQGATLVDRGDNTYGGKWVINPSGGLISKGHPLGATGLAQCAELCWQLRGEAGKRQVPGAKVALQHNLGIGGAVVVTLYKMGFPEAASSFRTHQIEAVPTSSASDGFKANLVFKEIEKKLEEEGEQFVKKIGGIFAFKVKDGPGGKEATWVVDVKNGKGSVLPNSDKKADCTITMADSDFLALMTGKMNPQSAFFQGKLKITGNMGLAMKLQNLQLQPGNAKL [SCP2]”, the results for the thermal stability score with HeLa Kyoto [1] (setting [5]) and with HeLa Kyoto [1] (cell cycle stage: mitosis) were -1.44 and -2.06, respectively. Also, in the data set with HeLa Kyoto [2], the “solubility change mitosis (log2)” value worked out at 0.135. For the same sequence, in the data set on HeLa Kyoto [3], the “solubility in G1/S (log2)” value was 0.587. Also, the melting temperature is 54.5 °C in the data set with HeLa Kyoto [4] (cell cycle stage: G1/S) and 54.4 °C in the data set with HeLa Kyoto [4] (cell cycle stage: mitosis).

These data come from the supplement of paper PMC5998384.
